This note sets out measurements from the supplement of paper PMC7877785.

The nature of the data set: self-splicing fitness, log relative to wild type (ln ratio); higher = more splicing; Tetrahymena group I intron in knt gene, E. coli kanamycin selection, DiMSum; sequences stand for … in CUCUCU…GGAGGGAAAAGUUAUCAGGCAUGCACCUGGUAGCUAGUCUUUAAACCAAUAGAUUGCAUCGGUUUAAAAGGCAAGACCGUCAAAUUGCGGGAAAGGGGUCAACAGCCGUUCAGUACCAAGUCUCAGGGGAAACUUUGAGAUGGCCUUGCAAAGGGUAUGGUAAUAAGCUGACGGACAUGGUCCUAACCACGCAGCCAAGUCCUAAGUCAACAGAUCUUCUGUUGAUAUGGAUGCAGUUCACAGACUAAAUGUCGGUCGGGGAAGAUGUAUUCUUCUCAUAAGAUAUAGUCGGACCUCUCCUUAAUGGGAGCUAGCGGAUGAAGUGAUGCAACACUGGAGCCGCUGGGAACUAAUUUGUAUGCGAAAGUAUAUUGAUUAGUUUUGGAGUACUCGUGGUCG
In short, it runs like this:
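The eight P1ex-region nucleotides of an intron in the knt kanamycin-resistance gene on pET-22b(+) were all randomised and the library put into E. coli BL21(DE3). Six replicate transformations were grown overnight at 37°C or 30°C on LB agar with or without 25 μg/mL kanamycin, together with 100 μg/mL carbenicillin, 50 μM IPTG and 0.2% rhamnose. Colonies were pooled and amplicon-sequenced on an Illumina HiSeq 2500. Fitness from DiMSum is the error-weighted combination of wild-type-normalised replicate fold changes, kanamycin over none.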

± gives the uncertainty stated by the source.

Take AGUGAGCAAUAUUACGCCGU: the “self-splicing fitness (ln)” value (30 °C) is -2.39 ± 0.38.
With GCCUAGCAAUAUUACGAGCA, the “self-splicing fitness (ln)” value is -2.26 ± 0.33 (30 °C) and -0.418 ± 0.17 (37 °C).
Taken in the same sequence, the figures for AAAGAGCAAUAUUACGACAA were -2.27 ± 0.23 and -2.95 ± 0.38.
Consider CAGAAGCAAUAUUACGUUAG, for which the “self-splicing fitness (ln)” value is -0.919 ± 0.077 (30 °C) and -0.262 ± 0.097 (37 °C).
Take GCCUAGCAAUAUUACGACUA: the “self-splicing fitness (ln)” value (37 °C) was -1.93 ± 0.38.
Regarding GGAGAGCAAUAUUACGUUCC, the “self-splicing fitness (ln)” value (37 °C) was -2 ± 0.28.
GUGCAGCAAUAUUACGGGGA: the “self-splicing fitness (ln)” value runs as follows: (30 °C) -4.16 ± 0.3; (37 °C) -2.8 ± 0.23.
In the case of UGAUAGCAAUAUUACGCACA, the “self-splicing fitness (ln)” value reads like this: (30 °C) 0.0791 ± 0.086; (37 °C) -0.216 ± 0.1.
As for CAUCAGCAAUAUUACGUGGG, the “self-splicing fitness (ln)” value (30 °C) is -1.9 ± 0.075 and the “self-splicing fitness (ln)” value (37 °C) was -1.71 ± 0.1.
Turning to UUUCAGCAAUAUUACGUAGG, the “self-splicing fitness (ln)” value (30 °C) is -0.515 ± 0.068 and the “self-splicing fitness (ln)” value (37 °C) is -0.741 ± 0.11.
For CUAUAGCAAUAUUACGCGGC, in that order: -1.25 ± 0.26 and 0.45 ± 0.25.
As for GUAGAGCAAUAUUACGGUAG, the “self-splicing fitness (ln)” value runs as follows: (30 °C) -2.36 ± 0.12; (37 °C) -1.24 ± 0.13.
Taken in the same sequence, the figures for AAUAAGCAAUAUUACGACCC were -0.924 ± 0.12 and 0.479 ± 0.17.
On to AGCCAGCAAUAUUACGGCGA, for which the “self-splicing fitness (ln)” value runs as follows: (30 °C) -1.33 ± 0.095; (37 °C) -0.342 ± 0.11.
Taken in the same sequence, the figures for GUACAGCAAUAUUACGCCGC were -3.01 ± 0.24 and -2.46 ± 0.45.
Consider GCCUAGCAAUAUUACGCACA, for which the “self-splicing fitness (ln)” value by setting is: (30 °C) -0.975 ± 0.12; (37 °C) -0.604 ± 0.13.
Taken in the same sequence, the figures for UAACAGCAAUAUUACGUAAG were -1.46 ± 0.07 and -1.25 ± 0.084.
Taken in the same sequence, the figures for UACAAGCAAUAUUACGCCUC were -3.38 ± 0.48 and -2.1 ± 0.4.
Turning to UCGGAGCAAUAUUACGAUGG, the “self-splicing fitness (ln)” value by setting is: (30 °C) -3.2 ± 0.22; (37 °C) -2.1 ± 0.25.
In the case of CUGCAGCAAUAUUACGGAUC, the “self-splicing fitness (ln)” value (37 °C) was -2.38 ± 0.21.
Regarding GUAUAGCAAUAUUACGGGUU, the “self-splicing fitness (ln)” value is, setting by setting: (30 °C) -3.05 ± 0.29; (37 °C) -2.07 ± 0.27.
For GAUUAGCAAUAUUACGCAAA, in that order: -2.19 ± 0.18 and -2.24 ± 0.19.
For the sequence AGCGAGCAAUAUUACGCUAU, the “self-splicing fitness (ln)” value (37 °C) is -2.87 ± 0.24.
Take CCAGAGCAAUAUUACGGUAG: the “self-splicing fitness (ln)” value (30 °C) was -2.14 ± 0.11 and the “self-splicing fitness (ln)” value (37 °C) is -2.34 ± 0.2.
For GAAAAGCAAUAUUACGUAGC, in that order: -2.66 ± 0.15 and -1.51 ± 0.15.
Taken in the same sequence, the figures for CAGGAGCAAUAUUACGGGGG were -2.9 ± 0.19 and -2.4 ± 0.25.
Taken in the same sequence, the figures for GGGGAGCAAUAUUACGUAUC were -2.03 ± 0.2 and -2.19 ± 0.37.
GGAUAGCAAUAUUACGAAGC: the “self-splicing fitness (ln)” value (30 °C) is -2.6 ± 0.48.
For the sequence GGUUAGCAAUAUUACGGCCC, the “self-splicing fitness (ln)” value (30 °C) is -1.23 ± 0.43.
For GCUGAGCAAUAUUACGAAGU, the “self-splicing fitness (ln)” value (37 °C) was -1.72 ± 0.41.
Regarding UGAUAGCAAUAUUACGUCAA, the “self-splicing fitness (ln)” value is, setting by setting: (30 °C) -2.44 ± 0.18; (37 °C) -0.767 ± 0.16.
For UAUAAGCAAUAUUACGUCUU, in that order: -1 ± 0.085 and -0.554 ± 0.1.
For GUCUAGCAAUAUUACGAAUC, the “self-splicing fitness (ln)” value reads like this: (30 °C) -1.33 ± 0.19; (37 °C) 1.43 ± 0.2.
Take UUGUAGCAAUAUUACGGGCC: the “self-splicing fitness (ln)” value (37 °C) was -1.69 ± 0.38.
Consider CUAUAGCAAUAUUACGGCAC, for which the “self-splicing fitness (ln)” value is, setting by setting: (30 °C) -2.18 ± 0.24; (37 °C) -1.09 ± 0.42.
For the sequence UGGAAGCAAUAUUACGUGUC, the “self-splicing fitness (ln)” value (37 °C) was -2.38 ± 0.18.
As to AAAGAGCAAUAUUACGAAUC, the “self-splicing fitness (ln)” value by setting is: (30 °C) -3.27 ± 0.24; (37 °C) -2.7 ± 0.26.
Regarding AGUGAGCAAUAUUACGCUUA, the “self-splicing fitness (ln)” value (37 °C) was -1.98 ± 0.38.
AUUGAGCAAUAUUACGAAGA: the “self-splicing fitness (ln)” value is -2.47 ± 0.25 (30 °C) and -2.23 ± 0.35 (37 °C).
Turning to GAAAAGCAAUAUUACGCUUC, the “self-splicing fitness (ln)” value runs as follows: (30 °C) -3.71 ± 0.12; (37 °C) -2.77 ± 0.14.
Take GUCGAGCAAUAUUACGAUCU: the “self-splicing fitness (ln)” value by setting is: (30 °C) -2.87 ± 0.18; (37 °C) -0.451 ± 0.12.
For CCGUAGCAAUAUUACGCAAC, in that order: -4.04 ± 0.26 and -2.13 ± 0.21.
